Measured values as given in patent publication US20210340215A1 (published 2021).
Blank lines part the entries; values can stand above or below the binder they belong to.

What was measured:
[1] = target: T1, TMPRSS2:ERG gene fusion peptide on HLA-A*02:01 (human); assay: multimer staining
T1 peptide: ALNSEALSV
Source text: (§1) Neoantigen specific T cells were detected by combining HLA-multimer staining with 2 different fluorochrome conjugated recombinant HLA (HLA-A02.01, HLA-A03.01, or HLA-A11.01) multimer with neoantigen peptides. Anti-CD8, anti-CD4, anti-CD19, anti-CD16, anti-CD14, anti-CD56 and antibodies and Live/Dead IR dye (Invitrogen) were used for cell surface staining. CD8⁺ T cells were identified as CD8⁺CD4⁻CD19⁻CD16⁻CD14⁻CD56⁻IR⁻ (FIGS. 1, 2, 4A, 5, 6A, 8F, 8G, 9, 10A, 10B, 11, 13, 15, 16A and 16B). For sorting, up to 5×10⁶ cells were incubated with 1-20 μg multimer in 100 μL PBS+0.5% human serum. Antibodies and Live/Dead IR dye were used to stain the cells for an additional 30 min. After staining, cells were washed twice and diluted in PBS+0.5% human serum. Live/Dead IR dye-negative cells were gated and CD8⁺/multimer⁺ T cells were sorted on a FACSAria cell sorter (BD Biosciences).

[2] = target: T2, BTK C481S peptide on HLA-A*02:01 (human); assay: multimer staining
T2 peptide: SLLNYLREM
Source text: as §1

[3] = target: T3, GATA3 neoORF (frameshift; CSNH) peptide on HLA-A*02:01 (human); assay: multimer staining
T3 peptide: MLTGPPARV
Source text: as §1

[4] = target: T4, GATA3 neoORF (frameshift; CSNH) peptide on HLA-B*08:01 (human); assay: cytokine release
T4 peptide: ESKIMFATL

[5] = target: T5, KRAS G12V peptide on HLA-A*11:01 (human); assay: multimer staining
T5 peptide: VVGAVGVGK
Source text: as §1

- binding result [1]: recognises
B1: TMPRSS2::ERG TCR-1 (TCR, V domains shown)
Valpha: AQKVTQAQTEISVVEKEDVTLDCVYETRDTTYYLFWYKQPPSGELVFLIRRNSFDEQNEISGRYSWNFQKSTSSFNFTITASQVVDSAVYFCALSEARVFNGANSKLTFGKGITLSVRP
Vbeta: EAGVTQFPSHSVIEKGQTVTLRCDPISGHDNLYWYRRVMGKEIKFLLHFVKESKQDESGMPNNRFLAERTGGTYSTLKVQPAELEDSGVYFCASSQADSPLHFGNGTRLTVT

- binding result [2]: recognises
B2: BTK TCR-2 (TCR, V domains shown)
Valpha: QKEVEQNSGPLSVPEGAIASLNCTYSDRGSQSFFWYRQYSGKSPELIMFIYSNGDKEDGRFTAQLNKASQYVSLLIRDSQPSDSATYLCAVNEGDSSYKLIFGSGTRLLVRP
Vbeta: DSGVTQTPKHLITATGQRVTLRCSPRSGDLSVYWYQQSLDQGLQFLIQYYNGEERAKGNILERFSAQQFPDLHSELNLSSLELGDSALYFCASSPGANEKLFFGSGTQLSVL

- binding result [3]: recognises
B3: GATA3 TCR-1 (TCR, V domains shown)
Valpha: SQKIEQNSEALNIQEGKTATLTCNYTNYSPAYLQWYRQDPGRGPVFLLLIRENEKEKRKERLKVTFDTTLKQSLFHITASQPADSATYLCALDIYGNNRLAFGKGNQVVVIP
Vbeta: DVKVTQSSRYLVKRTGEKVFLECVQDMDHENMFWYRQDPGLGLRLIYFSYDVKMKEKGDIPEGYSVSREKKERFSLILESASTNQTSMYLCASSLDFVLAGSYSYNEQFFGPGTRLTVL

- binding result [4]: recognises
B4: GATA3 TCR-3 (TCR, V domains shown)
Valpha: AQSVSQHNHHVILSEAASLELGCNYSYGGTVNLFWYVQYPGQHLQLLLKYFSGDPLVKGIKGFEAEFIKSKFSFNLRKPSVQWSDTAEYFCAVISVTGNNRKLIWGLGTSLAVNP
Vbeta: DGGITQSPKYLFRKEGQNVTLSCEQNLNHDAMYWYRQDPGQGLRLIYYSQIVNDFQKGDIAEGYSVSREKKESFPLTVTSAQKNPTAFYLCASSRTAMNTEAFFGQGTRLTVV

- binding result [5]: recognises
B5: RAS TCR-28 (TCR, V domains shown)
Valpha: DQQVKQNSPSLSVQEGRISILNCDYTNSMFDYFLWYKKYPAEGPTFLISISSIKDKNEDGRFTVFLNKSAKHLSLHIVPSQPGDSAVYFCAASAVGQEYGNKLVFGAGTILRVKS
Vbeta: DTGVSQNPRHKITKRGQNVTFRCDPISEHNRLYWYRQTLGQGPEFLTYFQNEAQLEKSRLLSDRFSAERPKGSFSTLEIQRTEQGDSAMYLCASSEYTMGTQYFGPGTRLLVL

- binding result [2]: recognises
B6: BTK TCR-1 (TCR, V domains shown)
Valpha: QKEVEQNSGPLSVPEGAIASLNCTYSDRGSQSFFWYRQYSGKSPELIMFIYSNGDKEDGRFTAQLNKASQYVSLLIRDSQPSDSATYLCAVNDYGGSQGNLIFGKGTKLSVKP
Vbeta: DTGVSQNPRHKITKRGQNVTFRCDPISEHNRLYWYRQTLGQGPEFLTYFQNEAQLEKSRLLSDRFSAERPKGSFSTLEIQRTEQGDSAMYLCASSFGPDEKLFFGSGTQLSVL

- binding result [5]: recognises
B7: RAS TCR-26 (TCR, V domains shown)
Valpha: DQQVKQNSPSLSVQEGRISILNCDYTNSMFDYFLWYKKYPAEGPTFLISISSIKDKNEDGRFTVFLNKSAKHLSLHIVPSQPGDSAVYFCAANAGGTSYGKLTFGQGTILTVHP
Vbeta: EPEVTQTPSHQVTQMGQEVILRCVPISNHLYFYWYRQILGQKVEFLVSFYNNEISEKSEIFDDQFSVERPDGSNFTLKIRSTKLEDSAMYFCASSEWGSTGELFFGEGSRLTVL

- binding result [5]: recognises
B8: RAS TCR-27 (TCR, V domains shown)
Valpha: ELKVEQNPLFLSMQEGKNYTIYCNYSTTSDRLYWYRQDPGKSLESLFVLLSNGAVKQEGRLMASLDTKARLSTLHITAAVHDLSATYFCAVDIIGGKSTFGDGTTLTVKP
Vbeta: B7 Vbeta
